Biological target: T1, His-tagged human calmodulin (recombinant) (human, UniProt P0DP24 1-149)
T1 construct: human calmodulin, CALM2 cDNA (OriGene SC125707) in a modified pET16b with a TEV site between the N-terminal polyhistidine tag and the protein; also called free calmodulin; recombinant calmodulin; not shown: polyhistidine, N-terminal, kept
Experiment: ELISA; competition: calmodulin immobilised, GST-DED1 held at its KD concentration, R4 peptide titrated; anti-GST AlexaFluor 488 detection
Details: both partners purified

B1: DED1 R4 peptide (peptide)
peptide: VRRFDLLKRILK
notes: cFLIP DED1 region 4, V62-K73, twelve amino acids; also called region 4; source: synthetic peptide (Tufts University Core Facility)
IC50: 63 µM

Source: article PMC4631386, “Identification and Characterization of the Interaction Site between cFLIPL and Calmodulin” (PLoS ONE, 2015)
